Test in all cases: purified protein
For data set [1], the system named is CCCCCCCC(=O)Oc1ccc([N+](=O)[O-])cc1. The following applies: 20 mM Tris-HCl pH 8.0, RT, 40 nM enzyme.
For data set [2], the system named is CC(=O)Oc1ccc([N+](=O)[O-])cc1. The following applies: 20 mM Tris-HCl pH 8.0, RT, 40 nM enzyme.
The subject of data set [3] is O=C(Cc1cccs1)N[C@@H]1C(=O)N2C(C(=O)O)=C(/C=C/c3ccc([N+](=O)[O-])cc3[N+](=O)[O-])CS[C@H]12. The following applies: 20 mM Tris-HCl pH 8.0, RT, 15 μM enzyme.

As usually defined, the Km is the substrate concentration at which the rate is half of its maximum. As a reminder, the kcat is the maximal rate divided by the concentration of active sites. As to CcEstA (Caulobacter vibrioides NA1000), the Km in data set [1] was determined as 43.4 ± 3.15 µM; in data set [2], 51.9 ± 2.44 µM; in data set [3], 1348 µM. In addition, the turnover number (kcat) in data set [1] is 4.03 ± 0.29 s⁻¹; in data set [2], 15.2 ± 2.19 s⁻¹; in data set [3] it was 0.00807 s⁻¹.
